Test results taken from PMC9231621 (Proceedings of the National Academy of Sciences of the …, 2022).

B1: MPV454 (antibody, V domains shown)
VH: QVQLVESGGGLVKPGGSLRLSCSTSGFVFSSYAMHWVRQAPGKGLEHVSAISSTGDNTHYADSVKGRFTISRDNSRGRLYLQMTSVRPEDAALYYCVKDLYSGRFYYFLDDWGQGTRIIVSS
VL: DIQVTQSPSSLSASVGDRVTISCRASQNISNYLNWFQQRPGKAPKLLIYVASTLQSGAPSRFSGSGSGTDFTLTITDLQPEDFATYYCQQSYNTPPITFGQGTRLEIK
B2: MPV491 (antibody, V domains shown)
VH: QVQLQESGPGLVKSSQTLSLTCTVSGGSISSVTSHWTWIRQHPGKGLEWIGYIFSSGTTYYSPSLRSRLTMSVDTSKNQFSLQLSSVTAADTAMYYCARGIYCGDSCYKGTDYWGRGTLVTVSS
VL: IRLMTQTPVTLPVTPGEPASISCRSSQSLLHSNGYNYLDWYLQKPGQSPQLLIYRGSTRASGVPDRFSGSGSGTEFTLKISRVEAEDVGVYYCMQGLQTPYTFGQGTKLESR
B3: MPV485 (antibody, V domains shown)
V domain 1: QVQLQEPGPGLVKPSETLSLTCTVSGGSISSTNSFWGWVRQPPGKGLEWIGSIYYSGTTYYNSSLKSRVTISVDTSKNQFSLRLSSVTAADTAVYYCARQGLTSSWYDGSGLDVWG
V domain 2: SYELTQPPSVSVSPGQTASITCSGDKLGNKYACWYQQRPGQSPVLVIYQDTKRPSGIPERFSGSNSGNTATLTISGTQAMDEADYYCQAWDSNTVVFGGGTKLTVL
B4: MPV464 (antibody, V domains shown)
VH: QVQLQESGPGLVKPSQTLSLTCTVSGGSVRGGGDYWSWIRRPPGKGLEWIGHIYNSGTTFYNPSLKSRVTISIDTSKNQFSLKLRSVTAADTAVYYCGRVGSRATGLPDWIDPWGQGTLVTVSS
VL: SYELTQPPSVSVSPGQTATITCSGTNLGAKYSCWYQQKPGQSPVLVIFQDNKRASGIPARFSASTSGDTATLTISGTQVMDEADYFCQAWDSRTAVFGGGTTLTV
B5: MPV486 (antibody, V domains shown)
VH: QVQLVESGGHLVQSGGSLRLSCAASGFTFSNYILNWVRQAPGKGLEWISYITGGSSAIYYADSVKGRFTISRDDAKNSLYLQMNNLRAEDTAVYYCARSHGYDSSGYYYYFAMDVWGQGTTVTVSS
VL: QSVLTQPPSASGTPGQRVTISCSGSNSNIESNTVNWYQQIPGTAPKLLIYSDNRRPSGVPDRFSGSKSGTSASLAISGLQSEDEADYYCAAWDDSLIGYVFGTGTKVTV
B6: MPV481 (antibody, V domains shown)
VH: QVQLVQSGGGLVKPGGSLRLSCAASGLPFNNAWMNWVRQAPGKGLEWVGRIKSKIDGGTTEYAAPVKGRFTISRDDSENTLYLQMNSLRTEDTAVYYCTTEYYALLSGNYSDCWGQGTLVTVSS
VL: IRLMTQSPFSLSLSPGERATLSCRASQSIKRAYLGWYQQKPGQAPRLLIYGASNRATGIPDRFSGSGSGTDFTLTISRLEPEDFAVYYCQQYGDSPGGSFGQGTKLEIR
B7: MPV482 (antibody, V domains shown)
VH: QVQLVQSGGGVVQPGRSLRLSCAASGFTFSSFAMHWVRQAPGKGLEWVALISDDGNNKYHADSVKGRFTISRDSSKNTLYLQMNSLRGEDTAVYYCARDGSVVGAAAHCDHWGQGTLVTVSS
VL: SYELTQPPSVSVSPGQTARITCSGDALPNQCAYWYQQKPGLAPVLLIYKDKERPSGIPERFSGSISGTTVTLTISGVQAEDEADYYCQSSDSSSTVVFGGGTKLTVL

Legend:
[1] = biological target: hMPV A1 F monomer (trypsinized monomeric prefusion hMPV F) (human metapneumovirus subgroup A1; …, UniProt H6X1Z1, strain)
[2] = biological target: hMPV A1 F trimer (heated), postfusion hMPV F (human metapneumovirus subgroup A1; …, UniProt H6X1Z1, strain)

Binder | binding result [1] | binding result [2]
B1 | binds | binds
B2 | binds | binds
B3 | binds | binds
B4 | binds | binds
B5 | binds | binds
B6 | binds | binds
B7 | binds | binds
